Measured values: publication PMC7783346

Tested on: His6-KfrA G38A (plasmid RA3 (IncU; Aeromonas hydrophila in Fig S1/S3))
Assay: EMSA
Conditions: EMSA: 50 mM Tris-HCl pH 8.0, 10 mM MgCl2, 50 mM NaCl, 37 C, 30 min, 10 nM EcoRI-NdeI-digested plasmid DNA (vector fragment as internal competitor), 20 ul …

“WT OK (kfrAp), EcoRI-NdeI fragment of pESB2.68” gave a K half of 260 nM.
